The record followed here is patent US20100040611A1 (Merck Sharp & Dohme, published 2010).

Numbering of substitutions follows the chain as printed. Where two headings read alike, the source gives them in different places.

What all share (test): cell-based or functional assay
Experiment [1] concerns the target T1, recombinant human PCSK9, V5-, His-tagged (human, UniProt Q8NBP7 31-692, limits assumed).
Experiment [2] has as its target T1, recombinant human PCSK9, V5-, His-tagged. The source holds these as a separate data set.
Experiment [3] shares this target. The source holds these as a separate data set.
Experiment [4] has the same target. The source holds these as a separate data set.
For experiment [5] the target is unchanged. The source holds these as a separate data set.

T1 sequence (Q8NBP7 31-692 limits assumed): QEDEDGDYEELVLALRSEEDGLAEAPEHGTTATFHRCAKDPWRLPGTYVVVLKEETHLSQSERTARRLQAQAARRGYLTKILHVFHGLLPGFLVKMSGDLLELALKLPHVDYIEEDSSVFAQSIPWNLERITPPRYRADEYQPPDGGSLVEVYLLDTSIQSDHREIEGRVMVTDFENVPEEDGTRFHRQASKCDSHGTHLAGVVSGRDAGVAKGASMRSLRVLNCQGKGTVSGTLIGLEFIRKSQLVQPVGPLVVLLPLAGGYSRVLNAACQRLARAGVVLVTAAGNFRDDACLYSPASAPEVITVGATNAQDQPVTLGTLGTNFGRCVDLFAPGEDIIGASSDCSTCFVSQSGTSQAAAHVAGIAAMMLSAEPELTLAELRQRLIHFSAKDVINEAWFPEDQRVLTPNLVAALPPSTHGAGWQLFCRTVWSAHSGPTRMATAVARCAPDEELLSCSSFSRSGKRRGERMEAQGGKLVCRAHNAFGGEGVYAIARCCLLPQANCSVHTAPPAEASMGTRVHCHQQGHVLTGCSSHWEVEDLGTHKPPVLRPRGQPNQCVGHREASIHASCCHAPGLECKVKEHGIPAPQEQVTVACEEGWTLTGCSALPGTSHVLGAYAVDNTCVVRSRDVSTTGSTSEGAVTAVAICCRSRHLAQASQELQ

B1: 3BX5C01 (Fab, V domains shown)
VH: QVQLVQSGAEVKKPGESLKISCKGSGYSFTSYGISWVRQMPGKGLEWMGMIDPSDSFTTYSPSFQGQVTISADKSISTAYLQWSSLKASDTAMYYCARGYYFTYALQPMDHWGQGTLVTVSS
VL: DIELTQPPSVSVAPGQTARISCSGDNLRDYIVHWYQQKPGQAPVLVIYDDSNRPSGIPERFSGSNSGNTATLTISGTQAEDEADYYCGFDNGGDIDVFGGGTKLTVLG
Take B1: the “IC50: reversal of PCSK9-dependent loss of cellular diI-LDL uptake (Exopolar assay), Fab titrated against a fixed 25 µg/ml PCSK9” value in experiment [1] came out at 1.25 µM.

B2: 3CX4B08 (Fab, V domains shown)
VH: QVQLVESGGGLVQPGGSLRLSCAASGFTFSNYTMNWVRQAPGKGLEWVSFISSSSSETYYADSVKGRFTISRDNSKNTLYLQMNSLRAEDTAVYYCARGYGDMVDLWGQGTLVTVSS
VL: DIELTQPPSVSVAPGQTARISCSGDSIPTYYVAWYQQKPGQAPVLVIYSDTDRPSGIPERFSGSNSGNTATLTISGTQAEDEADYYCQSFDNHGYHVFGGGTKLTVLG
As for B2, the “IC50: reversal of PCSK9-dependent loss of cellular diI-LDL uptake (Exopolar assay), Fab titrated against a fixed 25 µg/ml PCSK9” value in experiment [2] came to 127 nM.

B3: 3CX2A06 (Fab, V domains shown)
VH: QVQLVQSGAEVKKPGESLKISCKGSGYSFSNFWIAWVRQMPGKGLEWMGIIDPSDSWTRYSPSFQGQVTISADKSISTAYLQWSSLKASDTAMYYCARGDGQDFDNWGQGTLVTVSS
VL: DIQMTQSPSSLSASVGDRVTITCRASQNINSYLNWYQQKPGKAPKLLIYAASSLQSGVPSRFSGSGSGTDFTLTISSLQPEDFAVYYCLQNYDLPNTFGQGTKVEIKR
Turning to B3, the “IC50: reversal of PCSK9-dependent loss of cellular diI-LDL uptake (Exopolar assay), Fab titrated against a fixed 25 µg/ml PCSK9” value in experiment [3] turned out to be 107 nM.

B4: 3CX3D02 (Fab, V domains shown)
VH: QVQLVQSGAEVKKPGESLKISCKGSGYSFTNSWIGWVRQMPGKGLEWMGIIYPSDSYTIYSPSFQGQVTISADKSISTAYLQWSSLKASDTAMYYCARGGGYYYALMDVWAQGTLVTVSS
VL: B3 VL with N28T, N30S, S31T, Y32W, V85T, N91D, Y92S, D93S, N96L
Consider B4, for which the “IC50: reversal of PCSK9-dependent loss of cellular diI-LDL uptake (Exopolar assay), Fab titrated against a fixed 25 µg/ml PCSK9” value in experiment [4] was found to be 269 nM.

B5: 1CX1G08 (Fab, V domains shown)
VH: QVQLVESGGGLVQPGGSLRLSCAASGFTFSDYWVSWVRQAPGKGLEWVSFISYDGSSTYYADSVKGRFTISRDNSKNTLYLQMNSLRAEDTAVYYCARTYFEGVDVWGQGTLVTVSS
VL: DIELTQPPSVSVAPGQTARISCSGDNIGTYYVHWYQQKPGQAPVLVIYDDSNRPSGIPERFSGSNSGNTATLTISGTQAEDEADYYCGTWDNTSFNLVFGGGTKLTVLG
On to B5, for which, in experiment [5], the “IC50: reversal of PCSK9-dependent loss of cellular diI-LDL uptake (Exopolar assay), Fab titrated against a fixed 25 µg/ml PCSK9” value is 267 nM.
